In patent US20200339670A1 (published 2020):

Assays:
TAMRA-labelled Aβ1-42 = molecular target: T1, TAMRA-labelled Aβ1-42 (UniProt P05067 672-713, TAMRA label (position not given)); test: flow cytometry of supernatants of immunostimulated primary microglia incubated with Aβ1-42
T1 construct: domain: Aβ1-42; also called TAMRA-Aβ1-42; TAMRA-Aβ
Experimental: Supernatants containing ASC specks were subsequently incubated with Aβ₁₋₄₂ for 6 h and thereafter analyzed by flow cytometry. (b) Upper panel: Immunoprecipitation and immunoblot detection of ASC in unstimulated, immunoactivated wildtype (wt) and ASC knockout (ASC^{-/-}) macrophages. ASC monomer detection is restricted to supernatants of immunoactivated, ASC-competent wt cells and absent in unstimulated wt cells or ASC^{-/-} macrophages. Lower panel: Immunoprecipitation of ASC followed by immunoblot detection of Aβ under the same experimental conditions as described for the upper panel. ASC bound Aβ is exclusively detected in supernatants derived from immunoactivated wt macrophages but not from unstimulated wt or ASC^{-/-} cells. (c) Upper panel: Immunoprecipitation of ASC and immunoblot detection of ASC in unstimulated, immunoactivated wt and ASC^{-/-} microglia. ASC monomer detection is restricted to supernatants of immunoactivated ASC competent wt cells and absent in unstimulated wt cells or ASC^{-/-} macrophages. […] ASC bound Aβ is exclusively detected in supernatants derived from immunoactivated wt microglia but not from unstimulated wt or ASC^{-/-} cells. […] (f) Flow cytometry quantification of ASC-TAMRA-labelled […] after immunostimulation of microglia. […]

[1] = molecular target: the molecule itself; test: immunoblot for ASC over incubation time (self-association)

T1 sequence (P05067 672-713 limits assumed): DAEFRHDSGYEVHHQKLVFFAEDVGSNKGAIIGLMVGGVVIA

Binder	binding result (TAMRA-labelled Aβ1-42)	binding result [1]
ASC specks released by immunostimulated wild-type primary murine microglia or murine macrophages (other, UniProt Q9EPB4 1-193, looked up, Endogenous protein in cell-free supernatants; aggregated (speck) form; also called Microglia released ASC specks) MGRARDAILDALENLSGDELKKFKMKLLTVQLREGYGRIPRGALLQMDAIDLTDKLVSYYLESYGLELTMTVLRDMGLQELAEQLQTTKEESGAVAAAASVPAQSTARTGHFVDQHRQALIARVTEVDGVLDALHGSVLTEGQYQAVRAETTSQDKMRKLFSFVPSWNLTCKDSLLQALKEIHPYLVMDLEQS	binds	–
recombinant mutant ASC specks (recASC; K21A, K22A and K26A) in the ASC-PYD domain (other, Made and prepared as the wild-type recombinant protein; also called recASC K21A, K22A, K26A; ASC-PYD mutant; not shown: TEV protease cleavage site; mCherry; C-terminal hexa-histidine tag from pET-23a) MGRARDAILDALENLTAEELAAFKLALLSVPLREGYGRIPRGALLSMDALDLTDKLVSFYLETYGAELTANVLRDMGLQEMAGQLQAATHQGSGAAPAGIQAPPQSAAKPGLHFIDQHRAALIARVTNVEWLLDALYGKVLTDEQYQAVRAEPTNPSKMRKLFSFTPAWNWTCKDLLLQALRESQSYLVEDLERS	–	no binding
